Measured values taken from PMC4351732 (Structure (London, England : 1993), 2015).

Target: the molecule itself
Experiment: crystal structure

B1: human NAPE-hydrolyzing phospholipase D (NAPE-PLD), truncated form Δ47 (D47 to F393) (enzyme, UniProt Q6IQ20 47-393, looked up)
chain: DYRLEEDVTKSKKGKDGRFVNPWPTWKNPSIPNVLRWLIMEKDHSSVPSSKEELDKELPVLKPYFITNPEEAGVREAGLRVTWLGHATVMVEMDELIFLTDPIFSSRASPSQYMGPKRFRRSPCTISELPPIDAVLISHNHYDHLDYNSVIALNERFGNELRWFVPLGLLDWMQKCGCENVIELDWWEENCVPGHDKVTFVFTPSQHWCKRTLMDDNKVLWGSWSVLGPWNRFFFAGDTGYCPAFEEIGKRFGPFDLAAIPIGAYEPRWFMKYQHVDPEEAVRIHTDVQTKKSMAIHWGTFALANEHYLEPPVKLNEALERYGLNAEDFFVLKHGESRYLNNDDENF
- stoichiometry N: 2
